This note sets out measurements from PMC4366279 (PLoS ONE, 2015).

The target in assay [1] is T1, T. brucei RNA Editing Ligase 1 (TbREL1), full length wild type (Trypanosoma brucei, UniProt P86926 45-469, [35S]-methionine labelled).
T1 sequence: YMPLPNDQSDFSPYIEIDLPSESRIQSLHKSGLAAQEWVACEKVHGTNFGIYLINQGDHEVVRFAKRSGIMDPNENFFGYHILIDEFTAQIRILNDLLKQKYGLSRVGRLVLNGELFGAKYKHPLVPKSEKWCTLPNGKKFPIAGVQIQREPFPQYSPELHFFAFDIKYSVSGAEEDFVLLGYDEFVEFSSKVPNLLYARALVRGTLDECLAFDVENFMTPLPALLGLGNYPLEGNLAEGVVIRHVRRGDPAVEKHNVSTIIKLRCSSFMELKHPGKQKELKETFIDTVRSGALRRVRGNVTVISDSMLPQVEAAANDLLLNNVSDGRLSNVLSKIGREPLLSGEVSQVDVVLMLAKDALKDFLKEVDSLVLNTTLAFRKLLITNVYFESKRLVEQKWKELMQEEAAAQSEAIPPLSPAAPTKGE
Description: cell-based or functional assay.

In a further assay the target is T2, TbREL1 K441A (Trypanosoma brucei, UniProt P86926 45-469, K441A, [35S]-methionine labelled).
T2 construct: Site-directed mutagenesis of TbREL1-pET30a; source: in vitro translated (TNT reticulocyte lysate coupled transcription and translation system, Promega); not shown: His6, N-terminal, kept
T2 sequence: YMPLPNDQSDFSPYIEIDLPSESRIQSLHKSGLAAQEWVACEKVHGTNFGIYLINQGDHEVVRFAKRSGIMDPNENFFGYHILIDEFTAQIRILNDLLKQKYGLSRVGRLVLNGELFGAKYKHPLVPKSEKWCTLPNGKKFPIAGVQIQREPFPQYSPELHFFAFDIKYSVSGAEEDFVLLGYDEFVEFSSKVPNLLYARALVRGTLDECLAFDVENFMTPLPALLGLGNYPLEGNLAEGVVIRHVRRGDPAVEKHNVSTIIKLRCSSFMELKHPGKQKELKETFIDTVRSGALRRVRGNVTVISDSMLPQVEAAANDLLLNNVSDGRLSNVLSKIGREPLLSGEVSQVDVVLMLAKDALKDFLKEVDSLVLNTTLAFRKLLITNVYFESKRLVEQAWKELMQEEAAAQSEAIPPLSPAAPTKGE
Description: pull-down; His6-TbREL1 TNT mixture mixed with an equal volume of untagged KREPA2 TNT mixture, captured on magnetic His-tag isolation beads (Dynabeads); binding buffer 50 mM NaPO4 pH 8.0, 300 mM NaCl, 0.01% Tween 20; 20-30 min at 4°C; three washes; [35S]-methionine-labelled proteins on 10% SDS-PAGE, PhosphorImager; KREPA2-only control for background. The following applies: partners not purified.

The target in another assay is T3, TbREL1 E444A (Trypanosoma brucei, UniProt P86926 45-469, E444A, [35S]-methionine labelled).
T3 construct: Site-directed mutagenesis of TbREL1-pET30a; source: in vitro translated (TNT reticulocyte lysate coupled transcription and translation system, Promega); not shown: His6, N-terminal, kept
T3 sequence: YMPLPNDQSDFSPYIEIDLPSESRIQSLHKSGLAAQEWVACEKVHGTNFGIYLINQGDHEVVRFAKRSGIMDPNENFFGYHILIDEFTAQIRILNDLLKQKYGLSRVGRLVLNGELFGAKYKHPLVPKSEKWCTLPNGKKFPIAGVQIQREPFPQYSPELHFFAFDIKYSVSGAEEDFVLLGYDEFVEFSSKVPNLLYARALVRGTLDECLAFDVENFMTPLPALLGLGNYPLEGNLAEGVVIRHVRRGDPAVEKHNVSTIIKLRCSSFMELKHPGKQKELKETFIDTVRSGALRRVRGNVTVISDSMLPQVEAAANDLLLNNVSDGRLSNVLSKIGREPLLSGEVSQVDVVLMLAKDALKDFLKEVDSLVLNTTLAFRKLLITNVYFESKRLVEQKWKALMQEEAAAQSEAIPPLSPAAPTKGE
Described as above. The following applies: partners not purified.

The next assay concerns the target T4, TbREL1 F206A (Trypanosoma brucei, UniProt P86926 45-469, F206A, [35S]-methionine labelled).
T4 construct: Site-directed mutagenesis of TbREL1-pET30a; source: in vitro translated (TNT reticulocyte lysate coupled transcription and translation system, Promega); not shown: His6, N-terminal, kept
T4 sequence: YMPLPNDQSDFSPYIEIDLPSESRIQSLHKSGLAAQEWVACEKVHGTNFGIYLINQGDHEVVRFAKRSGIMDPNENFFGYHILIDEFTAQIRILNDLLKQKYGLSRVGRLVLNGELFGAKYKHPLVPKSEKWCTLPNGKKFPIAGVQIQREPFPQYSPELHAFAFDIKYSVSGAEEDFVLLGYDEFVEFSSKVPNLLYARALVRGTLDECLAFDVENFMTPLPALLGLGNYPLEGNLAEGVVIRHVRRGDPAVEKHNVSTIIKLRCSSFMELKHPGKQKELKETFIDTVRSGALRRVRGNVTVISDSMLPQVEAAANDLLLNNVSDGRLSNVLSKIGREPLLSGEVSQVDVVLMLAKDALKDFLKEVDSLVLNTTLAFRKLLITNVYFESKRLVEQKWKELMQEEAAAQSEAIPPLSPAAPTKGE
The assay is described as above. The following applies: partners not purified.

B1: KREPA2 (natural protein)
chain: MYRRFFRSAAVKHLGTTSAQCLMRATKYPCGAMCRNASSCHPQTLGYQQRFQSTTDKKFHCSVCKKPFRLEMAAKLHLQQAHGGDGSVEAGPGPGVEASSVNVVSTPVPSPISPVERTFVDEEERRPRRMRPTPKPLHQPDRDIPAAAMEEMLGVWDKIGLNRLEGNFVHSTMVMKVFAAPPDVSEIPLYEHVAPEGENPFDSLDHMTTGTVDATYVGHDAFAEVDLVDPFVAAPDQTLNPFRAGKVRNPFTRISPTQREVVKPLQPPQPKEEPLKAPVTPFGQLPMFGQTREPSASFAAAAVSVQAAANPNEVSSPFAAAVSSSPFVGQVASPFAPAQDVAGSPFEASPCAASSPFVTAGGQETSPFAAPSTPASFGQGSLFPPMGTGAPGFTAITETEQRQQELEHGCPTCGKKFSTFEGAAMHSKSKHGIVLESKKVKDRLNRKGVPDLPAYVPSPVDLSSTSPFGTRSAIGASWAETELIPHAQCVSNITIVGRVLDVSQASENVSHVTVFVEGERSGEEETLTLCCFGEVSQKIRGTLKRNATIFASGTLRLHPVYEASNNKYYVSPVVHVSMPTGTLAVIT
modifications: [35S]-methionine labelled
notes: KREPA2 of T. brucei, the KREPA2 open reading frame, expressed untagged (63 kDa); source: in vitro translated (TNT reticulocyte lysate coupled transcription and translation system, Promega)
With B1, the “adenylylation activity of TbREL1, enhancement in the presence of equimolar KREPA2” value in assay [1] amounted to 6.7 fold. Also, the “ligation activity of TbREL1 (pre-cleaved RNA ligation assay), enhancement in the presence of equimolar KREPA2” value in assay [1] amounted to 3.6 fold. Further, the “relative pulldown (% of the KREPA2 pulled down by TbREL1 WT)” value in the assay with TbREL1 K441A, in the assay with TbREL1 E444A and with TbREL1 F206A was less than 50% each time.
